The data set in a line: Ex vivo biodistribution of 111In-labeled variants in AR42J xenograft mice. Also noted: species or system athymic nude mice. To be noted: athymic nude, mouse, iv, 1 ug, total radioactivity, 1 h post-injection; for tissue uptake at 1 h: AR42J tumor-bearing mice. How it is done: For studies involving three variants (DOTA -TATE, DOTA-MVK(ε)-TATE, and DOTA-β-Gal-TATE), AR42J cells (5 × 10^6 cells per mouse) were subcutaneously inoculated into the right shoulder of the mice. Tumors were allowed to grow for 3 weeks, reaching a volume of 100 –200 mm³ before being used in subsequent experiments. For biodistribution or PET imaging studies, mice bearing subcutaneous AR42J tumors were administered 1.4 – 1.8 MBq (1 μg) of 111In-labeled DOTA-TATE variants or 2.7 – 4.9 MBq (1 μg) of 86Y-labeled DOTA-TATE variants via tail vein injection. Biodistribution studies with 111In-labeled DOTA -TATE variants were performed 1 hour post -injection (n = 3 per cohort), while studies with 86Y-labeled DOTA-TATE variants were conducted at 1, 4, and 24 hours post -injection (n = 3 per cohort). Mice were euthanized by CO2 asphyxiation, and 10 tissues, including tumors, were collected. All samples were weighed and counted on a gamma counter (2480 Wizard 3, Perkin Elmer Inc., Waltham, MA, USA). Results are presented as percentage of injected activity per gram (%IA/g) and mean values ± standard deviations. […]

Setting [1] is: blood, i.v. 1 μg (1.4–1.8 MBq), ex vivo gamma counting, mean, n = 3, read-out: Blood uptake.
Setting [2] is: femur, i.v. 1 μg, ex vivo, mean, n = 3, read-out: Femur uptake.
Where [3] appears, read: heart, i.v. 1 μg, ex vivo, mean, n = 3, read-out: Heart uptake.
[4] abbreviates: kidney, i.v. 1 μg, ex vivo, mean (± SD), n = 3, read-out: Kidney uptake.
Setting [5] is: liver, i.v. 1 μg, ex vivo, mean, n = 3, read-out: Liver uptake.
Where [6] appears, read: lung, i.v. 1 μg, ex vivo, mean, n = 3, read-out: Lung uptake.
[7] abbreviates: muscle, i.v. 1 μg, ex vivo, mean, n = 3, read-out: Muscle uptake.
[8] abbreviates: spleen, i.v. 1 μg, ex vivo, mean, n = 3, read-out: Spleen uptake.
Where [9] appears, read: tumor (AR42J xenograft), i.v. 1 μg, ex vivo, mean (± SD), n = 3, read-out: Tumor uptake.

Structures are written as SMILES. Where two headings read alike, the source gives them in different places.

Regarding `CSCC[C@H](NC(=O)CN1CCN(CC(=O)O)CCN(CC(=O)O)CCN(CC(=O)O)CC1)C(=O)N[C@H](C(=O)N[C@@H](CCCCNC(=O)CCCC(=O)N[C@H](Cc1ccccc1)C(=O)N[C@H]1CSSC[C@@H](C(=O)N[C@H](C(=O)O)[C@@H](C)O)NC(=O)[C@H]([C@@H](C)O)NC(=O)[C@H](CCCCN)NC(=O)[C@@H](Cc2c[nH]c3ccccc23)NC(=O)[C@H](Cc2ccc(O)cc2)NC1=O)C(=O)O)C(C)C` [^111In-DOTA-MVK(ε)-TATE, metal not drawn], the tissue uptake at 1 h by setting is: under setting [1], 0.73 %ID/g; under setting [2], 0.55 %ID/g; under setting [3], 0.29 %ID/g; (intestine, i.v. 1 μg, ex vivo, mean, n = 3, read-out: Intestine uptake) 0.81 %ID/g; under setting [4], 5.56 ± 0.29 %ID/g; under setting [5], 0.31 %ID/g. Further, the tissue uptake at 1 h reads like this: under setting [6], 0.73 %ID/g; under setting [7], 0.27 %ID/g; under setting [8], 0.16 %ID/g; under setting [9], 5.44 ± 0.19 %ID/g. The tissue to tissue ratio at 1 h (tumor and kidney, AR42J xenografts, ex vivo, read-out: Tumor-to-kidney (T/K) ratio) was 0.98.
Take `C[C@@H](O)[C@H](NC(=O)[C@@H]1CSSC[C@H](NC(=O)[C@@H](Cc2ccccc2)NC(=O)CN2CCN(CC(=O)O)CCN(CC(=O)O)CCN(CC(=O)O)CC2)C(=O)N[C@@H](Cc2ccc(O)cc2)C(=O)N[C@H](Cc2c[nH]c3ccccc23)C(=O)N[C@@H](CCCCN)C(=O)N[C@@H]([C@@H](C)O)C(=O)N1)C(=O)O` [^111In-DOTA-TATE, metal not drawn, reference compound]: the tissue uptake at 1 h reads like this: under setting [1], 0.27 %ID/g; under setting [2], 0.12 %ID/g; under setting [3], 0.1 %ID/g; under setting [4], 7.33 ± 0.04 %ID/g; under setting [5], 0.23 %ID/g; under setting [6], 0.49 %ID/g. In addition, the tissue uptake at 1 h turned out to be 0.06 %ID/g under setting [7], 0.1 %ID/g under setting [8] and 5.67 ± 0.92 %ID/g under setting [9].

These data come from paper doi:10.1101/2025.09.11.675134, “Biodistribution-Driven Discovery Identifies a Glycosidase-Cleavable Linker to Reprogram Radiotheranostics” (bioRxiv, 2025).
